Molecular target: the molecule itself
Assay: SEC-MALS

B1: Vps4^E233Q (ATP hydrolysis-deficient mutant of Saccharomyces cerevisiae vacuolar protein sorting-associated protein 4) (enzyme)
chain: KKSPSAGSGSNGGNKKISQEEGEDNGGEDNKKLRGALSSAILSEKPNVKWEDVAGLEGAKEALKEAVILPVKFPHLFKGNRKPTSGILLYGPPGTGKSYLAKAVATEANSTFFSVSSSDLVSKWMGESEKLVKQLFAMARENKPSIIFIDQVDALTGTRGEGESEASRRIKTELLVQMNGVGNDSQGVLVLGATNIPWQLDSAIRRRFERRIYIPLPDLAARTTMFEINVGDTPCVLTKEDYRTLGAMTEGYSGSDIAVVVKDALMQPIRKIQSATHFKDVSTEDDETRKLTPCSPGDDGAIEMSWTDIEADELKEPDLTIKDFLKAIKSTRPTVNEDDLLKQEQFTRDFGQEGN
Q: For B1, which “stoichiometry N” value is on record?
A: Its value is 6.
